Drawing on publication PMC10937380, this text covers Kd for one substance.

In the experiment the target is preformed E3mUU–UFC1–UFM1 complex (UniProt O94874). The experiment in a line: ITC; MicroCal PEAQ-ITC, 25 °C, 25 mM HEPES pH 7.5, 200 mM NaCl, 0.44 mM TCEP; 13 injections (19 for UFBP1 UFIM–UFM1). Background: In ITC the heat of successive injections is recorded.

As a reminder, the Kd is the constant that tells how readily two partners part at equilibrium. The low end stands for higher affinity, the high end for lower affinity.

For the substance “CDK5RAP3 (from UniProt Q96JB5 1-506) (natural protein)”, the Kd worked out at 500 nM.
